Data set [1] concerns the target T1, MqsA-CHis (Pseudomonas putida KT2440) (UniProt Q88F94).
T1 sequence: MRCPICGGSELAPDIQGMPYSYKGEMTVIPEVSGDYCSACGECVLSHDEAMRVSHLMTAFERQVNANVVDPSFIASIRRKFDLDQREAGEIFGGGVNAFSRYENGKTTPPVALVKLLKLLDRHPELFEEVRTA
Nature of the data set: EMSA. As to conditions: 10 mM HEPES pH 7.3, 20 mM KCl, 1 mM MgCl2, 5% glycerol, NP-40, poly dI-dC, 0.05 pmol biotin probe in 20 ul, 25 C, 1 h. On the technique in general: Mobility shift assays separate free from complexed probe on a gel.

Data set [2] addresses MqsA-CHis;MqsR (Pseudomonas putida KT2440;Pseudomonas putida KT2440) (UniProt Q88F94+Q88F93). As to the kind of experiment: EMSA. To be noted: 10 mM HEPES pH 7.3, 20 mM KCl, 1 mM MgCl2, 5% glycerol, NP-40, poly dI-dC, 0.05 pmol biotin probe in 20 ul, 25 C, 1 h.

Regarding “CTATTAGCCAAATTTAACCTGGAAGGTTAATTTCTCATGGAAAAGAGAATGCCTCATTGCCCGCTGGAGCGGGTAAAAGCCCTGGCTGCGGCAAGGCGAATCCGCCCTACGGGTGCTGCATTGAAAGGCG (double strand) [PmqsRA]”, the binding entry in data set [1] is “binds”; in data set [2], “no binding”.

The values are drawn from article PMC5422877.
